The text below walks through data of US20240269252A1, “COMPOSITIONS FOR INDUCING AN IMMUNE RESPONSE” (President and Fellows of Harvard College, priority 2017, published 2024).

The nature of the data set: Biomolecule release quantification: incorporation efficiency and release kinetics of CpG ODN, GM-CSF and antigen from cryogel vaccines. It counts as physicochemical. The note with it: for encapsulation efficiency: encapsulated in vaccine cryogel by cryo-polymerization.

In turn, “5′-TCCATGACGTTCCTGACGTT-3′ [CpG-ODN, reference compound]” showed an encapsulation efficiency of 48%. Further, the “CpG-ODN eluted from the hydrogel” value (within the first 2 days) is 50%.
In the case of “granulocyte-macrophage colony-stimulating factor [GM-CSF]”, the encapsulation efficiency was 87%. In addition, the “burst release of the loaded amount” value (GM-CSF from vaccine cryogel, in vitro) was “about 8%”. Further, the GM-CSF released (over the first 5 days in vitro) worked out at 85%.
